Measurements: patent publication US20200408765A1 (Sanofi, published 2020)

Target: human CD38 (human, UniProt P28907 1-300)
Test: cell-based or functional assay

B1: chimeric 38SB31 (antibody, V domains shown)
VH: DVKLVESGGGLVKPGGSLKLSCEASGFTFSSYTLSWVRQTPETRLEWVATISIGGRYTYYPDSVEGRFTISRDNAKNTLYLQMNSLKSEDTAMYYCTRDFNGYSDFWGQGTTLTVSS
VL: DTVMTQSHKFISTSVGDRVSITCKASQVVGSAVAWYQQKPGQSPKLLIYWASTRHTGVPDRFTGSGSGTDFTLTISNVQSEDLADYFCQQYNSYPYTFGGGTKLEIKR
CDC: specific viability of Daudi cells with 1.25 µg/mL or higher antibody and complement: 53%
